Among the data in publication PMC3930596, “Insights into the Initiation of JC Virus DNA Replication Derived from the Crystal Structure of the T-Antigen Origin Binding Domain” are stoichiometry N and Kd values, retold here.

Data set [1] deals with JCV T-antigen origin-binding domain (residues 132-261) with tartrate-modified Lys168 (crystal form 3) (JC virus). Kind of data set: crystal structure; crystal form 3, space group P4_(1), 1.32 Å, one molecule in the asymmetric unit; 0.19 M sodium tartrate, 19% PEG 3350, 4 C; contacts with symmetry mates.
Data set [2] addresses JCV T-antigen origin-binding domain (OBD; residues 132-261) (JC virus). Kind of data set: crystal structure; crystal form 1, space group C2, 1.64 Å, two molecules in the asymmetric unit; 0.1 M sodium citrate pH 5.6, 30% PEG 3350, 18 C; interfaces analysed with PISA.
Data set [3] has the same target. Nature of the data set: crystal structure; crystal form 2, space group I4_(1), 2.6 Å; 0.1 M Tris pH 8.5, 0.2 M LiSO4, 30% PEG 4000, 4 C; contacts with symmetry mates.
In data set [4] the target is T1, JCV T-antigen origin-binding domain (OBD) (JC virus (JCV), UniProt P03072 132-261).
T1 sequence: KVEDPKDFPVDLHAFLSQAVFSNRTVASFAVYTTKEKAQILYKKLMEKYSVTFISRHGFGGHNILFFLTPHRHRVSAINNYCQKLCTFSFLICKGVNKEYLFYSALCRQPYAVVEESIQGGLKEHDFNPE
Kind of data set: ITC; ITC (VP-ITC): 10 mM sodium phosphate pH 7.0, 50 mM NaCl; temperature not stated; OBD in syringe (~80 uM for Site II, 40 uM for Site I), DNA 1.5 uM / 1.0 uM. Conditions: protein: recombinant; tags: N-terminal GST removed by thrombin; chain copies: 4; blunt. (In ITC the heat of successive injections is recorded.)

Data set [5] concerns the target T1, JCV T-antigen origin-binding domain …. Kind of data set: ITC; average of four titrations; titration shown in Fig. 4A ~278 nM; N = 4 OBDs per duplex; ITC (VP-ITC): 10 mM sodium phosphate pH 7.0, 50 mM NaCl; temperature not stated; OBD in syringe (~80 uM for Site II, 40 uM for Site I), DNA 1.5 uM / 1.0 uM. Conditions: protein: recombinant; tags: N-terminal GST removed by thrombin; chain copies: 4; blunt.

As usually defined, the stoichiometry N is a count of units in the complex or per binding partner. In data set [1], “JCV T-antigen origin-binding domain (residues 132-261) with tartrate-modified Lys168 (crystal form 3) (domain or fragment)” came in with a stoichiometry N of 4. “JCV T-antigen origin-binding domain (OBD; residues 132-261) (domain or fragment)”: the stoichiometry N in data set [2] and in data set [3] was 4 throughout.

B1: JCV Site I 28 bp (dsDNA)
DNA 1: GCGTGGAGGCTTTTTAGGAGGCCAGGGA
DNA 2: TCCCTGGCCTCCTAAAAAGCCTCCACGC
By Kd is commonly meant the constant that tells how readily two partners part at equilibrium. Consider B1, for which the Kd in data set [4] turned out to be 18.3 nM.

B2: JCV Site II 33 bp (dsDNA)
DNA 1: TACAGGAGGCCGAGGCCGCCTCCGCCTCCAAGC
DNA 2: GCTTGGAGGCGGAGGCGGCCTCGGCCTCCTGTA
Take B2: the Kd in data set [5] worked out at 299 nM.
